Tests used:
SEC-MALS = target: the molecule itself; assay: SEC-MALS
[1] = target: T1, Nup88^517-742 (tags removed, from the co-purified complexes) (rat, UniProt O08658 517-742); assay: SEC-MALS + other: densitometry of SDS-PAGE bands
T1 sequence: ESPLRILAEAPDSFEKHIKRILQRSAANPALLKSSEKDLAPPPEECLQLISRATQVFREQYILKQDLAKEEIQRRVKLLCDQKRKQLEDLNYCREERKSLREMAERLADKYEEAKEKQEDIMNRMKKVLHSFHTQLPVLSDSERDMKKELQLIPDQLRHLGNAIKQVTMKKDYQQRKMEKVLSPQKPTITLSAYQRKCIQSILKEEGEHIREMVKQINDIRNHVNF

B1: His6-tagged Nup88^517-742 (domain or fragment)
chain: T1 sequence
SEC-MALS
  stoichiometry N: 2

B2: Nup62^322-525 (tags removed, from the co-purified complexes) (domain or fragment)
chain: AVGTTTGPAMTYAQLESLINKWSLELEDQERHFLQQATQVNAWDRTLIENGEKITSLHREVEKVKLDQKRLDQELDFILSQQKELEDLLSPLEESVKEQSGTIYLQHADEEREKTYKLAENIDAQLKRMAQDLKDIIEHLNMAGGPADTSDPLQQICKILNAHMDSLQWVDQSSALLQRRVEEASRVCESRRKEQERSLRIAFD
[1]
  stoichiometry N: 2 Nup62 per Nup88
